Experimental data as given in PMC6287623.

Key:
[1] = target: unglycosylated human insulin 1 (human); experiment: AUC
[2] = target: Manα2Manα2Manα-ThrB27 insulin glycoform 13 (human); experiment: AUC

| stoichiometry N [1] | percent monomer [2] | Substance |
| --- | --- | --- |
| 2 | – | unglycosylated human insulin 1 (natural protein) |
| – | > 70% | Manα2Manα2Manα-ThrB27 insulin glycoform 13 (natural protein) |
